Laboratory results from PMC6693180.

Target: DTL (UniProt Q9NZJ0)
Experiment: co-IP with His tag antibody
Details: reference: His-PDCD4 wild type; sites S67

Substance: PDCD4 (from UniProt Q53EL6) His-PDCD4(S67A)
- binding against the reference: lost
